Data from patent publication US20220401480A1 (NOILE IMMUNE BIOTECH, published 2022).

Biological target: T1, recombinant fusion protein including mouse PD-1 and immunoglobulin Fc portion (mouse, UniProt Q02242 25-167, limits assumed)
T1 construct: also called mouse PD-1-Fc; not shown: immunoglobulin Fc portion
T1 sequence (looked up): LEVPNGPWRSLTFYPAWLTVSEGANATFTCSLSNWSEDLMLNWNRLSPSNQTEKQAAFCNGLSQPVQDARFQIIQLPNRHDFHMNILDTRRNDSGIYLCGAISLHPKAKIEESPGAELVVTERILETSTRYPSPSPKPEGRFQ
Assay: ELISA: mouse PD-1-Fc immobilized in wells; scFv from conditioned medium of conv./PD-1 and 7x19/PD-1 CAR-T cells captured; detected with anti-FLAG tag or anti-6xHis tag; signal observed for both (FIG. 15)
Protocol: Prior to using various CAR-T cells in experiments, the concentration of anti-mPD-1 scFv (also referred to PD-1scFv) was measured using two kinds of ELISA kit. Specifically, a conditioned medium of the untransduced T cells, the anti-hCD20-CAR-expressing T cells, the anti-hCD20 CAR-IL-7/CCL19-expressing T cells, the anti-hCD20-CAR-anti-PD-1-antibody-expressing T cells, or the anti-hCD20-CAR-IL-7/CCL19-anti-PD-1-antibody-expressing T cells was collected after 2 days of cultivation, and the concentrations of […] in the conditioned medium were measured using ELISA. In the ELISA, a recombinant fusion protein including mouse PD-1 and immunoglobulin Fc portion was immobilized in the wells, PD-1 scFv was captured thereto, and an anti-FLAG tag or anti-6xHis tag was used for detection. In FIG. 15, the average value over the triplicate wells as well as the standard deviation thereof are indicated in the graph. In each graph, data are arranged from the left to the right: the untransduced T cells (uninf.), the anti-hCD20-CAR-expressing T cells (conv.), the anti-hCD20 CAR-IL-7/CCL19-expressing T cells (7×19), the anti-hCD20-CAR-anti-PD-1-antibody-expressing T cells (conv./PD-1), the anti-hCD20-CAR-IL-7/CCL19-anti-PD-1-antibody-expressing T cells (7×19/PD-1), and a culture medium only (data obtained by performing the same treatment on the culture liquid to which T cells were not added).

binding result: binds
B1: anti-mPD-1 scFv (anti-mouse-PD-1 scFv with FLAG tag and His tag, secreted by transduced mouse T cells) (scFv)
scFv: QFVLTQPKTVSESLGRTVTISCKRSSGSVGDYYVSWHQQRFGSSPKTVIYLDDERPSGVPKRFSGSIDSSSNSASLTITDLQTDDEADYFCLSYDSNNHFVFGSGTHLTVLGGGGSGGGGSGGGGSEVQLVESGGGLAQPGKSLKLSCEASGFTFSDYGMNWFRQAPGKGLEWVAYISSGSNKITYADTVKGRFTVSRDNGKNQLFLQMNNLKSEDTAIYYCVDSGFNSYSDVWGQGIQVTVSSDYKDDDDKFVEHHHHHH
notes: It was tested as conditioned medium and was not purified; also called anti-PD-1 scFv
